± gives the standard deviation of the averaged measurements.
Tests used:
MCF7 = assay: percentage of EdU-negative (G0-arrested) nuclei per well, 72 h; higher = more G0 arrest; details: reference: sequence is the full UniProt precursor, the tested protein was the secreted form or ectodomain
hTERT-HMEC = assay: as above; details: reference: sequence is the full UniProt precursor, the tested protein was the secreted form or ectodomain
[1] = protein concentration 0.0225 µM
[2] = protein concentration 0.03125 µM
[3] = protein concentration 0.3125 µM
[4] = protein concentration 0.00975 µM
[5] = protein concentration 0.0975 µM
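Also: secreted proteins added to cultured cells, EdU pulse at the end, nuclei found by Hoechst imaging, EdU status from nuclear versus surrounding ring intensity ratio, PBS as neutral control.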

With “MVPRISAAIFIFELLGSNSEGVTDLRLWLCQPAPRCGEWTYNPLEQCCDDGVILDLNQTRLCGSSCTFWPCFQHCCLESLGSQNQTVVRFKVPGMKPDCKSSPITRICAQEYHPKSPVSRSDLI [Q6B9Z1]” the “percentage of EdU-negative” value (MCF7; [1]) was 24.3 ± 0.92%, the “percentage of EdU-negative” value (MCF7; protein concentration 0.225 µM) was 24.9 ± 0.9% and the “percentage of EdU-negative” value (hTERT-HMEC; [1]) was 4.65 ± 1.1%. For the same sequence, the “percentage of EdU-negative” value (hTERT-HMEC; protein concentration 0.225 µM) was 5.64 ± 0.86%.
In the case of “MAAAAMAAAAGGGAGAARSLSRFRGCLAGALLGDCVGSFYEAHDTVDLTSVLRHVQSLEPDPGTPGSERTEALYYTDDTAMARALVQSLLAKEAFDEVDMAHRFAQEYKKDPDRGYGAGVVTVFKKLLNPKCRDVFEPARAQFNGKGSYGNGGAMRVAGISLAYSSVQDVQKFARLSAQLTHASSLGYNGAILQALAVHLALQGESSSEHFLKQLLGHMEDLEGDAQSVLDARELGMEERPYSSRLKKIGELLDQASVTREEVVSELGNGIAAFESVPTAIYCFLRCMEPDPEIPSAFNSLQRTLIYSISLGGDTDTIATMAGAIAGAYYGMDQVPESWQQSCEGYEETDILAQSLHRVFQKS [Q9NX46]”, the “percentage of EdU-negative” value (MCF7; [1]) is reported as 24.5 ± 2.2%, the “percentage of EdU-negative” value (MCF7; protein concentration 0.225 µM) is reported as 29.1 ± 3.5% and the “percentage of EdU-negative” value (hTERT-HMEC; [1]) is reported as 4.73 ± 1.1%. The “percentage of EdU-negative” value (hTERT-HMEC; protein concentration 0.225 µM) was 7.08 ± 0.11%.
“MGSSSFLVLMVSLVLVTLVAVEGVKEGIEKAGVCPADNVRCFKSDPPQCHTDQDCLGERKCCYLHCGFKCVIPVKELEEGGNKDEDVSRPYPEPGWEAKCPGSSSTRCPQK [Q8WWY7]” was tested, and the “percentage of EdU-negative” value (MCF7; [2]) was 26.5 ± 3.1%, the “percentage of EdU-negative” value (MCF7; [3]) was 24 ± 2.8% and the “percentage of EdU-negative” value (hTERT-HMEC; [2]) was 5.3 ± 0.5%. The “percentage of EdU-negative” value (hTERT-HMEC; [3]) was 5.28 ± 0.67%.
“MRMLLALLALSAARPSASAESHWCYEVQAESSNYPCLVPVKWGGNCQKDRQSPINIVTTKAKVDKKLGRFFFSGYDKKQTWTVQNNGHSVMMLLENKASISGGGLPAPYQAKQLHLHWSDLPYKGSEHSLDGEHFAMEMHIVHEKEKGTSRNVKEAQDPEDEIAVLAFLVEAGTQVNEGFQPLVEALSNIPKPEMSTTMAESSLLDLLPKEEKLRHYFRYLGSLTTPTCDEKVVWTVFREPIQLHREQILAFSQKLYYDKEQTVSMKDNVRPLQQLGQRTVIKSGAPGRPLPWALPALLGPMLACLLAGFLR” was tested, and the “percentage of EdU-negative” value (MCF7; [1]) was 24.9 ± 1.8%, the “percentage of EdU-negative” value (MCF7; protein concentration 0.225 µM) was 25.5 ± 1.3% and the “percentage of EdU-negative” value (hTERT-HMEC; [1]) was 5.11 ± 0.088%. For the same sequence, the “percentage of EdU-negative” value (hTERT-HMEC; protein concentration 0.225 µM) was 7.91 ± 0.34%.
In the case of “MSSAAGFCASRPGLLFLGLLLLPLVVAFASAEAEEDGDLQCLCVKTTSQVRPRHITSLEVIKAGPHCPTAQLIATLKNGRKICLDLQAPLYKKIIKKLLES”, the “percentage of EdU-negative” value (MCF7; [2]) is reported as 23.9 ± 0.55%, the “percentage of EdU-negative” value (MCF7; [3]) is reported as 26.1 ± 3.4% and the “percentage of EdU-negative” value (hTERT-HMEC; [2]) is reported as 5.71 ± 0.5%. The “percentage of EdU-negative” value (hTERT-HMEC; [3]) was 5.011 ± 0.0019%.
With “MGADGETVVLKNMLIGINLILLGSMIKPSECQLEVTTERVQRQSVEEEGGIANYNTSSKEQPVVFNHVYNINVPLDNLCSSGLEASAEQEVSAEDETLAEYMGQTSDHESQVTFTHRINFPKKACPCASSAQVLQELLSRIEMLEREVSVLRDQCNANCCQESAATGQLDYIPHCSGHGNFSFESCGCICNEGWFGKNCSEPYCPLGCSSRGVCVDGQCICDSEYSGDDCSELRCPTDCSSRGLCVDGECVCEEPYTGEDCRELRCPGDCSGKGRCANGTCLCEEGYVGEDCGQRQCLNACSGRGQCEEGLCVCEEGYQGPDCSAVAPPEDLRVAGISDRSIELEWDGPMAVTEYVISYQPTALGGLQLQQRVPGDWSGVTITELEPGLTYNISVYAVISNILSLPITAKVATHLSTPQGLQFKTITETTVEVQWEPFSFSFDGWEISFIPKNNEGGVIAQVPSDVTSFNQTGLKPGEEYIVNVVALKEQARSPPTSASVSTVIDGPTQILVRDVSDTVAFVEWIPPRAKVDFILLKYGLVGGEGGRTTFRLQPPLSQYSVQALRPGSRYEVSVSAVRGTNESDSATTQFTTEIDAPKNLRVGSRTATSLDLEWDNSEAEVQEYKVVYSTLAGEQYHEVLVPRGIGPTTRATLTDLVPGTEYGVGISAVMNSQQSVPATMNARTELDSPRDLMVTASSETSISLIWTKASGPIDHYRITFTPSSGIASEVTVPKDRTSYTLTDLEPGAEYIISVTAERGRQQSLESTVDAFTGFRPISHLHFSHVTSSSVNITWSDPSPPADRLILNYSPRDEEEEMMEVSLDATKRHAVLMGLQPATEYIVNLVAVHGTVTSEPIVGSITTGIDPPKDITISNVTKDSVMVSWSPPVASFDYYRVSYRPTQVGRLDSSVVPNTVTEFTITRLNPATEYEISLNSVRGREESERICTLVHTAMDNPVDLIATNITPTEALLQWKAPVGEVENYVIVLTHFAVAGETILVDGVSEEFRLVDLLPSTHYTATMYATNGPLTSGTISTNFSTLLDPPANLTASEVTRQSALISWQPPRAEIENYVLTYKSTDGSRKELIVDAEDTWIRLEGLLENTDYTVLLQAAQDTTWSSITSTAFTTGGRVFPHPQDCAQHLMNGDTLSGVYPIFLNGELSQKLQVYCDMTTDGGGWIVFQRRQNGQTDFFRKWADYRVGFGNVEDEFWLGLDNIHRITSQGRYELRVDMRDGQEAAFASYDRFSVEDSRNLYKLRIGSYNGTAGDSLSYHQGRPFSTEDRDNDVAVTNCAMSYKGAWWYKNCHRTNLNGKYGESRHSQGINWYHWKGHEFSIPFVEMKMRPYNHRLMAGRKRQSLQF” the “percentage of EdU-negative” value (MCF7; [4]) was 26.36 ± 0.12%, the “percentage of EdU-negative” value (MCF7; [5]) was 26.4 ± 0.85% and the “percentage of EdU-negative” value (hTERT-HMEC; [4]) was 5.09 ± 0.52%. The “percentage of EdU-negative” value (hTERT-HMEC; [5]) was 6.03 ± 1.7%.
